± gives the uncertainty stated by the source.
B1: Nanos homolog 2, residues 63 to 115; numbered along this chain, P60321 (parent)
chain: CNFCKHNGESRHVYSSHQLKTPDGVVVCPILRHYVCPVCGATGDQAHTLKYCP
B2: Transcription elongation regulator 1-like protein, residues 448 to 504; numbered along this chain, Q5VWI1 (parent)
chain: LPLEERVTHFRDMLLERGVSAFSTWEKELHKIVFDPRYLLLNSEERKQIFEQFVKTR

Variants of: B1
Experiment: abundance fitness (aPCA) (normalised: wild type 0, dead -1); higher = more abundant; growth selection in yeast, the domain comes from the species named
Details: Homo sapiens

| Variant | abundance fitness |
| --- | --- |
| C1S | -0.337 ± 0.17 |
| C1L | -0.745 ± 0.064 |
| C1W | -0.941 ± 0.21 |
| C1G | -0.554 ± 0.071 |
| C1F | -0.347 ± 0.22 |
| C1Y | -0.762 ± 0.4 |
| N2M | -0.861 ± 0.16 |
| N2E | -0.663 ± 0.099 |
| N2D | -0.359 ± 0.13 |
| N2H | -0.647 ± 0.12 |
| N2G | -0.484 ± 0.074 |
| N2L | -0.864 ± 0.061 |
| N2P | -0.812 ± 0.19 |
| N2A | -0.823 ± 0.054 |
| N2K | -0.255 ± 0.076 |
| N2I | -0.157 ± 0.12 |
| N2C | -0.701 ± 0.082 |
| N2F | -0.324 ± 0.092 |

Variants of: B2
Experiment: as above
Details: Homo sapiens

| Variant | abundance fitness |
| --- | --- |
| V19W | -0.767 ± 0.27 |
| V19Q | -0.625 ± 0.4 |
| V19E | -0.893 ± 0.14 |
| V19S | -0.805 ± 0.25 |
| E51T | -0.281 ± 0.085 |
| E51L | -0.522 ± 0.081 |
| E51A | 0.047 ± 0.099 |
| E51R | -0.594 ± 0.094 |
| E51K | -0.278 ± 0.085 |
| E51C | -0.96 ± 0.32 |
| E51Y | -0.375 ± 0.077 |
| F10N | -0.237 ± 0.43 |
| F10R | -0.677 ± 0.15 |
| F10A | -0.717 ± 0.14 |
| F10W | -0.536 ± 0.27 |
| F10P | -0.227 ± 0.46 |
| F10V | -0.97 ± 0.36 |
| F10C | -1.1 ± 0.32 |
| G18T | 0.098 ± 0.24 |
| G18W | -0.746 ± 0.25 |
| Y38I | -0.645 ± 0.44 |
| Y38T | -0.69 ± 0.34 |
| Y38W | -1.06 ± 0.37 |
| Y38L | -0.5 ± 0.15 |
| Y38G | -0.786 ± 0.14 |

| Variant | abundance fitness |
| --- | --- |
| Y38K | -0.275 ± 0.36 |
| L14G | -0.751 ± 0.18 |
| L14F | -0.817 ± 0.44 |
| L14V | -0.967 ± 0.34 |
| K27T | -0.711 ± 0.35 |
| K27G | -0.366 ± 0.15 |
| K27A | 0.073 ± 0.15 |
| K27F | 0.197 ± 0.25 |
| K27R | -0.295 ± 0.14 |
| K27H | -0.612 ± 0.23 |
| K27C | -0.032 ± 0.36 |
| K27P | -0.627 ± 0.23 |
| K27Q | 0.101 ± 0.29 |
| E45W | -0.483 ± 0.26 |
| E45V | -0.858 ± 0.26 |
| E45G | -0.427 ± 0.18 |
| R17A | -0.465 ± 0.39 |
| R17H | -0.02 ± 0.13 |
| R17E | -0.479 ± 0.43 |
| R17Q | -0.287 ± 0.42 |
| R17G | -0.978 ± 0.25 |
| R17V | -0.434 ± 0.32 |
| T24I | -0.692 ± 0.24 |
| T24A | -0.561 ± 0.27 |
| T24H | -0.361 ± 0.38 |

| Variant | abundance fitness |
| --- | --- |
| T24P | -0.571 ± 0.21 |
| T24L | -0.559 ± 0.18 |
| W25I | -0.393 ± 0.46 |
| W25E | -0.713 ± 0.21 |
| W25Y | 0.169 ± 0.28 |
| W25M | -0.154 ± 0.33 |
| T56S | -0.017 ± 0.16 |
| T56K | -0.078 ± 0.22 |
| T56Q | 0.022 ± 0.12 |
| T56D | 0.635 ± 0.27 |
| T56N | 0.05 ± 0.092 |
| T56L | -0.311 ± 0.13 |
| T56A | 0.035 ± 0.16 |
| Q48A | -0.036 ± 0.16 |
| Q48K | -0.31 ± 0.48 |
| Q48C | -0.227 ± 0.1 |
| Q48E | 0.006 ± 0.25 |
| Q48W | -0.05 ± 0.18 |
| Q48M | -0.002 ± 0.24 |
| Q48D | 0.297 ± 0.2 |
| Q48I | -0.213 ± 0.11 |
| Q48N | 0.751 ± 0.21 |
| Q48R | -0.165 ± 0.098 |
| Q48L | -0.082 ± 0.12 |
| Q48V | -0.065 ± 0.11 |

| Variant | abundance fitness |
| --- | --- |
| I49E | -0.3 ± 0.39 |
| I49S | -0.669 ± 0.23 |
| I49Q | 0.437 ± 0.1 |
| I49P | -0.886 ± 0.17 |
| I49Y | 0.129 ± 0.48 |
| I49L | 0.035 ± 0.17 |
| V33W | -0.415 ± 0.21 |
| V33L | -0.47 ± 0.13 |
| V33H | 0.238 ± 0.44 |
| V33K | 0.062 ± 0.17 |
| V33E | -0.076 ± 0.16 |
| V33A | -0.138 ± 0.12 |
| V33T | -0.423 ± 0.19 |
| V33G | -0.764 ± 0.15 |
| V33S | 0.028 ± 0.18 |
| H9W | -0.328 ± 0.31 |
| H9F | -0.475 ± 0.48 |
| H9K | 0.157 ± 0.089 |
| H9E | -0.234 ± 0.35 |
| H9R | -0.202 ± 0.14 |
| H9S | -0.073 ± 0.12 |
| H9I | 0.378 ± 0.39 |
| H9Y | -0.236 ± 0.2 |
| A21E | -0.165 ± 0.17 |
| A21V | -0.22 ± 0.15 |

| Variant | abundance fitness |
| --- | --- |
| A21R | -0.364 ± 0.19 |
| A21Q | -0.245 ± 0.34 |
| A21C | -0.202 ± 0.34 |
| I32G | -0.764 ± 0.16 |
| I32T | -0.81 ± 0.43 |
| I32M | -0.466 ± 0.33 |
| I32V | 0.086 ± 0.095 |
| I32L | -0.494 ± 0.13 |
| L1F | 0.408 ± 0.27 |
| E5I | -0.06 ± 0.16 |
| E5C | -0.303 ± 0.12 |
| E5K | -0.535 ± 0.41 |
| P2A | 0.331 ± 0.18 |
| P2T | 1.24 ± 0.085 |
| P2D | 1.26 ± 0.14 |
| P2W | 0 ± 0.31 |
| P2N | 1.18 ± 0.37 |
| P2E | 0.88 ± 0.073 |
| H30S | -0.585 ± 0.26 |
| H30I | -0.439 ± 0.25 |
| H30Y | -0.337 ± 0.3 |
| H30D | -0.235 ± 0.32 |
| H30P | 0.098 ± 0.2 |
| H30T | -0.492 ± 0.18 |
| H30W | -0.138 ± 0.19 |

| Variant | abundance fitness |
| --- | --- |
| H30L | -0.544 ± 0.26 |
| F34K | -0.063 ± 0.34 |
| F34A | 0.029 ± 0.21 |
| F34M | -0.04 ± 0.19 |
| F34S | 0.229 ± 0.13 |
| F34W | -0.343 ± 0.2 |
| F34T | 0.245 ± 0.17 |
| F34L | -0.019 ± 0.13 |
| K55Q | -0.19 ± 0.1 |
| K55D | -0.514 ± 0.21 |
| K55L | -0.124 ± 0.1 |
| K55Y | -0.667 ± 0.28 |
| K55T | 0.212 ± 0.14 |
| K55C | -0.382 ± 0.34 |
| K55H | -0.218 ± 0.32 |
| K55G | -0.278 ± 0.088 |
| K55M | 0.06 ± 0.19 |
| R11T | -0.15 ± 0.32 |
| R11P | 0.183 ± 0.22 |
| R11S | -0.695 ± 0.32 |
| R11Y | -0.259 ± 0.4 |
| R11A | -0.544 ± 0.24 |
| R11M | -0.411 ± 0.29 |
| D35P | -0.722 ± 0.47 |

— the Human Domainome abundance scans (Beltran et al. 2025)
